Source: patent US20160115241A1 (Amgen, published 2016)

Tests used:
Assay in all cases: cell-based or functional assay
[1] = biological target: T1, folate receptor 1 (FOLR1) (human, UniProt P15328 25-234)
[2] = biological target: T1, folate receptor 1 (FOLR1); remark: listed apart in the source
human mesothelin (MSLN) = human mesothelin (MSLN) (human, UniProt Q13421 296-598)
Chain of human mesothelin (MSLN) (Q13421 other isoform, or with tags, fused parts or gaps limits assumed): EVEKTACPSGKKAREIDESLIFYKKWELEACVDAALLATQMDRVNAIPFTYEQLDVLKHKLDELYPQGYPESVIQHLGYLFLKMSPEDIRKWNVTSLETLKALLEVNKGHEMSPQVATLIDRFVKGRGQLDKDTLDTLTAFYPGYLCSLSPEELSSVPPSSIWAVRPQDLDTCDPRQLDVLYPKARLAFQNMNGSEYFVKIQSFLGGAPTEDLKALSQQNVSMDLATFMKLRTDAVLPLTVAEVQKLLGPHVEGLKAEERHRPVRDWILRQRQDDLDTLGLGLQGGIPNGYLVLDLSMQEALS

T1 sequence (P15328 25-234): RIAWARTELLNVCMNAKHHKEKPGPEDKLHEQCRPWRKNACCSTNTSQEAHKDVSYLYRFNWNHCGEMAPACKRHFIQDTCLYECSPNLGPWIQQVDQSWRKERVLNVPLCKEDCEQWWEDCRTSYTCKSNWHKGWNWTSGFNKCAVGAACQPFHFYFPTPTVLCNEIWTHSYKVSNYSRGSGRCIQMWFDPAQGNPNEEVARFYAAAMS

| Binder | EC50 of specific lysis, Cal-51 cells (printed Cal-61) with human T cells [1] [pM] | EC50 of specific lysis, T47D cells with human T cells [1] [pM] | EC50 (pM) for IFN-γ release by T cells in presence of T47D cells [2] [pM] | EC50 (pM) for IL-2 release by T cells in presence of T47D cells [2] [pM] | EC50 (pM) for IL-10 release by T cells in presence of T47D cells [2] [pM] | EC50 (pM) for IL-13 release by T cells in presence of T47D cells [2] [pM] | EC50 (pM) for TNF-α release by T cells in presence of T47D cells [2] [pM] | human TDCC EC50, killing of Ovcar-8 cells (human mesothelin (MSLN)) [pM] |
| --- | --- | --- | --- | --- | --- | --- | --- | --- |
| P136795.3 (anti-FOLR1/CD3ε heterodimeric bispecific antibody) (bispecific antibody) chain 1: EVQLVESGGGLVQPGGSLKLSCAASGFTFNSYAMNWVRQAPGKGLEWVARIRSKYNNYATYYADSVKGRFTISRDDSKNTAYLQMNNLKTEDTAVYYCVRHGNFGNSYVSWWAYWGQGTLVTVSSGGGGSGGGGSQSVLTQPPSVSEAPRQRVTISCSGSSSNIGNNAVNWYQQLPGKAPKLLIYYDDMLSSGVSDRFSGSKSGTSASLAISGLQSEDEADYYCAAWDDSLNGVVFGGGTKLTVLASTKGPSVFPLAPCSRSTSESTAALGCLVKDYFPEPVTVSWNSGALTSGVHTFPAVLQSSGLYSLSSVVTVPSSNFGTQTYTCNVDHKPSNTKVDKTVGGGGSAAAEPKSSDKTHTCPPCPAPEAAGGPSVFLFPPKPKDTLMISRTPEVTCVVVDVSHEDPEVKFNWYVDGVEVHNAKTKPREEQYNSTYRVVSVLTVLHQDWLNGKEYKCKVSNKALPAPIEKTISKAKGQPREPQVYTLPPSREEMTKNQVSLTCLVKGFYPSDIAVEWESNGQPENNYDTTPPVLDSDGSFFLYSDLTVDKSRWQQGNVFSCSVMHEALHNHYTQKSLSLSPGK chain 2: not shown | 1.21 | 1.26 | 27.1 | 20.3 | 28.3 | 27.8 | 12.5 | – |
| P73352.3 (anti-MSLN/CD3ε heterodimeric bispecific antibody with Fc region, without CH1 and CL) (bispecific antibody) chain 1: EVQLVESGGGLVKPGVSLRLSCAASGFTFSRYGMNWVRQAPGKGLEWVSSISSSGTYIKYADSVKGRFTISRDNAKNSLNLQMNSLRAEDTAVYYCARDRDRYPLDYWGQGTLVTVSSGGGGSGGGGSDIQMTQSPSSLSASVGDRVTITCRASQSINNYLNWYQQKPGKAPTLLIYAASSLQSGVPSRFSGSRSGTDFTLTISSLQPEDFAAYFCQQTYSNPTFGQGTKVEVKRAAAEPKSSDKTHTCPPCPAPELLGGPSVFLFPPKPKDTLMISRTPEVTCVVVNVSHEDPEVKFNWYVDGVEVHNAKTKPREEQYNSTYRVVSVLTVLHQDWLNGKEYKCKVSNKALPAPIEKTISKAKGQPREPQVYTLPPSREEMTKNQVSLTCLVKGFYPSDIAVEWESNGQPENNYDTTPPVLDSDGSFFLYSDLTVDKSRWQQGNVFSCSVMHEALHNHYTQKSLSLSPGK chain 2: QVQLQESGPGLVKPSQTLSLTCTVSGGSINNNNYYWTWIRQHPGKGLEWIGYIYYSGSTFYNPSLKSRVTISVDTSKTQFSLKLSSVTAADTAVYYCAREDTMTGLDVWGQGTLVTVSSGGGGSGGGGSSSYELTQPPSVSVSPGQTARITCSGDALPKKYAYWYQQKSGQAPVLVIYEATKRPSGIPERFSGSSSGTMATLTLSGAQVEDEADYYCYSTDSTNYHWVFGGGTKLTVLGAAAEPKSSDKTHTCPPCPAPELLGGPSVFLFPPKPKDTLMISRTPEVTCVVVDVSHEDPEVKFNWYVDGVEVHNAKTKPREEQYNSTYRVVSVLTVLHQDWLNGKEYKCKVSNKQLPAPIEKTISKAKGQPREPQVYTLPPSRKEMTKNQVSLTCLVKGFYPSDIAVEWESNGQPENNYKTTPPVLKSDGSFFLYSKLTVDKSRWQQGNVFSCSVMHEALHNHYTQKSLSLSPGKAAAHHHHHH | – | – | – | – | – | – | – | < 1 |
| P73356.3 (anti-MSLN/CD3ε heterodimeric bispecific antibody with Fc region) (bispecific antibody, human IgG1) chain 1: QVQLQESGPGLVKPSQTLSLTCTVSGGSINNNNYYWTWIRQHPGKGLEWIGYIYYSGSTFYNPSLKSRVTISVDTSKTQFSLKLSSVTAADTAVYYCAREDTMTGLDVWGQGTLVTVSSGGGGSGGGGSSSYELTQPPSVSVSPGQTARITCSGDALPKKYAYWYQQKSGQAPVLVIYEATKRPSGIPERFSGSSSGTMATLTLSGAQVEDEADYYCYSTDSTNYHWVFGGGTKLTVLGASTKGPSVFPLAPCSRSTSESTAALGCLVKDYFPEPVTVSWNSGALTSGVHTFPAVLQSSGLYSLSSVVTVPSSNFGTQTYTCNVDHKPSNTKVDKTVAAAEPKSSDKTHTCPPCPAPELLGGPSVFLFPPKPKDTLMISRTPEVTCVVVDVSHEDPEVKFNWYVDGVEVHNAKTKPREEQYNSTYRVVSVLTVLHQDWLNGKEYKCKVSNKQLPAPIEKTISKAKGQPREPQVYTLPPSRKEMTKNQVSLTCLVKGFYPSDIAVEWESNGQPENNYKTTPPVLKSDGSFFLYSKLTVDKSRWQQGNVFSCSVMHEALHNHYTQKSLSLSPGKAAAHHHHHH chain 2: EVQLVESGGGLVKPGVSLRLSCAASGFTFSRYGMNWVRQAPGKGLEWVSSISSSGTYIKYADSVKGRFTISRDNAKNSLNLQMNSLRAEDTAVYYCARDRDRYPLDYWGQGTLVTVSSGGGGSGGGGSDIQMTQSPSSLSASVGDRVTITCRASQSINNYLNWYQQKPGKAPTLLIYAASSLQSGVPSRFSGSRSGTDFTLTISSLQPEDFAAYFCQQTYSNPTFGQGTKVEVKRTVAAPSVFIFPPSDEQLKSGTASVVCLLNNFYPREAKVQWKVDNALQSGNSQESVTEQDSKDSTYSLSSTLTLSKADYEKHKVYACEVTHQGLSSPVTKSFNRGECAAAEPKSSDKTHTCPPCPAPELLGGPSVFLFPPKPKDTLMISRTPEVTCVVVAVSHEDPEVKFNWYVDGVEVHNAKTKPREEQYNSTYRVVSVLTVLHQDWLNGKEYKCKVSNKALPAPIEKTISKAKGQPREPQVYTLPPSREEMTKNQVSLTCLVKGFYPSDIAVEWESNGQPENNYDTTPPVLDSDGSFFLYSDLTVDKSRWQQGNVFSCSVMHEALHNHYTQKSLSLSPGK | – | – | – | – | – | – | – | < 1 |
